Five substances from patent US20210300992A1 can be followed below.

Assay [1] concerns the target human leukemia inhibitory factor (LIF), soluble (human) (UniProt P15018). Nature of the assay: yeast surface display, flow cytometry; Score column of the table of sorted gp130 CBM variants (the filing gives 100 pM and 1 nM human LIF for the gp130 binding scores). For orientation: Flow cytometry measures light scatter and fluorescence of single cells or particles in a stream.

Assay [2] has the same target. Nature of the assay: yeast surface display, flow cytometry; soluble human LIF titrated (0.001 to 100 nM), detected with a fluorescent antibody.
Assay [3] shares this target. Nature of the assay: yeast surface display, flow cytometry; score from summed fluorescence at 10 pM and 100 pM human LIF, normalized to wild-type and to expression.

Sequence of human leukemia inhibitory factor (LIF), soluble (human) (P15018 23-202 limits assumed): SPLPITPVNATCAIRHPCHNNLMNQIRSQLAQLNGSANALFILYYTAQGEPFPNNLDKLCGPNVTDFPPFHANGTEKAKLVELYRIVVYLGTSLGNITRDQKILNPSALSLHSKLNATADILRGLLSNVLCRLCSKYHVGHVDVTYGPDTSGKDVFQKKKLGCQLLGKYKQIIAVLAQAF

The substance ELDI (receptor) gave a Score (binding score) in assay [1] of 15.9.
In turn, ELRDSLE (receptor) registered a Score (binding score) in assay [1] of 23.6.
In assay [2], PDD (receptor) came in with an EC50 (read off the curve) of 0.4 nM. The substance also returned a Score (normalized binding score) in assay [3] of 7.71.
PRDSAID (receptor) showed a Score (normalized binding score) in assay [3] of 15.8.
On the same count and under the same terms, the same measure for PVVIDN (receptor): 13.9.

For orientation: EC50 (read off the curve) means the concentration needed to bring the measured effect to its halfway point.
